Key:
[1] = target: ASC (apoptosis-associated speck-like protein containing a CARD) (UniProt Q9ULZ3); assay: real-time NMR
[2] = target: ASCb (alternative splicing isoform of ASC) (UniProt Q9ULZ3); assay: real-time NMR

Row | Substance | k1aveCARD (average apparent rate constant k1 of the residues of the CARD) [1] [h⁻¹] | k1avePYD (average apparent rate constant k1 of the residues of the PYD) [1] [h⁻¹] | k2aveCARD (average apparent rate constant k2 of the residues of the CARD) [1] [h⁻¹] | k2avePYD (average apparent rate constant k2 of the residues of the PYD) [1] [h⁻¹] | k1 (apparent oligomerization rate constant, exponential fit) [2] [h⁻¹] | k1aveCARD (average apparent rate constant k1 of the residues of the CARD) [2] [h⁻¹] | k1avePYD (average apparent rate constant k1 of the residues of the PYD) [2] [h⁻¹] | k2 (apparent oligomerization rate constant, exponential fit) [2] [h⁻¹] | k2aveCARD (average apparent rate constant k2 of the residues of the CARD) [2] [h⁻¹] | k2avePYD (average apparent rate constant k2 of the residues of the PYD) [2] [h⁻¹] | reaction order m of oligomer formation (column of 495 μM) [2] | reaction order m of oligomer formation (column of 704 μM) [2]
1 | ASC (apoptosis-associated speck-like protein containing a CARD) (from UniProt Q9ULZ3 1-195) (natural protein) | 0.12 | 0.21 | 0.02 | 0.05 |  |  |  |  |  |  |  | 
2 | ASCb (alternative splicing isoform of ASC) (from UniProt Q9ULZ3-2 1-176) (natural protein) |  |  |  |  | 0.02 | 0.0288 | 0.0269 | 0.02 | 0.0288 | 0.0269 | 3.6 | 3.6

Reference: PMC8891976
